Source: paper PMC9786865, “Molecular Cloning and Characterization of a New Family VI Esterase from an Activated Sludge Metagenome” (Microorganisms, 2022)

Substrate: CC(=O)Oc1ccc([N+](=O)[O-])cc1
Assay: purified protein
Type: biochemical, uncultured sludge bacterium
Conditions: 50 mM Tris-HCl pH 8.0, 40 °C, 5 min, 0.08-1.0 mM substrate

B1: Est6 (uncultured sludge bacterium) (protein)
chain: MTELRINDDLVRWTVDRRPATADEALRALETRPLVLLMHGFGSFEGDLISLAAELPDGIVCASPRAPLTLPPPTVNGYAWWEIVFRADGTVVRSDPPAFEDSDAHTATLAILAWLDALDARVAGGLRTVVPLGFSQGGCMVTSLLRMQPTRFPCGVNCSGFVAPGSYAGDPELAAIRPPLFWGRDPADPIIEAERIDATAVWSAAHTAIEAHIYHGIGHGIGREEIADISAFIERHLAEAEH
notes: pPAL7 N-terminal Profinity eXact tag cleaved on column; E. coli BL21 Star (DE3); monomer; primers encode MTELRI... start and ...AEAEH end
B1 showed a Km of 1070 µM and a kcat of 10.46 s⁻¹.
